# Test results as given in the Human Domainome abundance scans (Beltran et al. 2025).
# ± gives the uncertainty stated by the source.
# B1: Formin-binding protein 4, residues 200 to 261; numbered along this chain, Q8N3X1 (parent)
# chain: SGWQYDTQCSLAGVGIEMGDWQEVWDENTGCYYYWNTQTNEVTWELPQYLATQVQGLQHYQP
# Variants of: B1
# Test: abundance fitness (aPCA) (normalised: wild type 0, dead -1); higher = more abundant; growth selection in yeast, the domain comes from the species named
# Settings: Homo sapiens
row,Variant,abundance fitness
1,SGWQYDTQCSLAGVGICMGDWQEVWDENTGCYYYWNTQTNEVTWELPQYLATQVQGLQHYQP [E17C],-0.338 ± 0.077
2,SGWQYDTQCSLAGVGIRMGDWQEVWDENTGCYYYWNTQTNEVTWELPQYLATQVQGLQHYQP [E17R],-0.103 ± 0.051
3,SGWQYDTQCSLAGVGIKMGDWQEVWDENTGCYYYWNTQTNEVTWELPQYLATQVQGLQHYQP [E17K],0.063 ± 0.099
4,SGWQYDTQCSLAGVGIDMGDWQEVWDENTGCYYYWNTQTNEVTWELPQYLATQVQGLQHYQP [E17D],0.138 ± 0.089
5,SGWQYDTQCSLAGVGIYMGDWQEVWDENTGCYYYWNTQTNEVTWELPQYLATQVQGLQHYQP [E17Y],-0.838 ± 0.15
6,SGWQYDTQCSLAGVGIAMGDWQEVWDENTGCYYYWNTQTNEVTWELPQYLATQVQGLQHYQP [E17A],-0.183 ± 0.081
7,SGWQYDTQCSLAGVGIPMGDWQEVWDENTGCYYYWNTQTNEVTWELPQYLATQVQGLQHYQP [E17P],-0.58 ± 0.1
8,SGWQYDTQCSLAGVGIVMGDWQEVWDENTGCYYYWNTQTNEVTWELPQYLATQVQGLQHYQP [E17V],-0.237 ± 0.073
9,SGWQYDTQCSLAGVGINMGDWQEVWDENTGCYYYWNTQTNEVTWELPQYLATQVQGLQHYQP [E17N],-0.34 ± 0.1
10,SGWQYDTQCSLAGVGILMGDWQEVWDENTGCYYYWNTQTNEVTWELPQYLATQVQGLQHYQP [E17L],-0.577 ± 0.073
11,SGWQYDTQCSLAGVGIHMGDWQEVWDENTGCYYYWNTQTNEVTWELPQYLATQVQGLQHYQP [E17H],-0.105 ± 0.11
12,SGWQYDTQCSLAGVGIMMGDWQEVWDENTGCYYYWNTQTNEVTWELPQYLATQVQGLQHYQP [E17M],-0.414 ± 0.12
13,SGWQYDTQCSLAGVGISMGDWQEVWDENTGCYYYWNTQTNEVTWELPQYLATQVQGLQHYQP [E17S],-0.151 ± 0.06
14,SGWQYDTQCSLAGVGIIMGDWQEVWDENTGCYYYWNTQTNEVTWELPQYLATQVQGLQHYQP [E17I],-0.373 ± 0.12
15,SGWQYDTQCSLAGVGIQMGDWQEVWDENTGCYYYWNTQTNEVTWELPQYLATQVQGLQHYQP [E17Q],-0.038 ± 0.096
16,SGWQYDTQCSLAGVGIWMGDWQEVWDENTGCYYYWNTQTNEVTWELPQYLATQVQGLQHYQP [E17W],-0.403 ± 0.078
17,SGWQYDTQCSLAGVGIFMGDWQEVWDENTGCYYYWNTQTNEVTWELPQYLATQVQGLQHYQP [E17F],-0.263 ± 0.094
18,SGWQYDTQCSLAGVGIGMGDWQEVWDENTGCYYYWNTQTNEVTWELPQYLATQVQGLQHYQP [E17G],-0.346 ± 0.061
19,SGWQYDTQCSLAGTGIEMGDWQEVWDENTGCYYYWNTQTNEVTWELPQYLATQVQGLQHYQP [V14T],-0.084 ± 0.091
20,SGWQYDTQCSLAGKGIEMGDWQEVWDENTGCYYYWNTQTNEVTWELPQYLATQVQGLQHYQP [V14K],0.116 ± 0.068
21,SGWQYDTQCSLAGEGIEMGDWQEVWDENTGCYYYWNTQTNEVTWELPQYLATQVQGLQHYQP [V14E],-0.03 ± 0.087
22,SGWQYDTQCSLAGNGIEMGDWQEVWDENTGCYYYWNTQTNEVTWELPQYLATQVQGLQHYQP [V14N],-0.067 ± 0.16

row,Variant,abundance fitness
1,SGWQYDTQCSLAGYGIEMGDWQEVWDENTGCYYYWNTQTNEVTWELPQYLATQVQGLQHYQP [V14Y],0.365 ± 0.13
2,SGWQYDTQCSLAGSGIEMGDWQEVWDENTGCYYYWNTQTNEVTWELPQYLATQVQGLQHYQP [V14S],-0.163 ± 0.075
3,SGWQYDTQCSLAGPGIEMGDWQEVWDENTGCYYYWNTQTNEVTWELPQYLATQVQGLQHYQP [V14P],-0.698 ± 0.11
4,SGWQYDTQCSLAGWGIEMGDWQEVWDENTGCYYYWNTQTNEVTWELPQYLATQVQGLQHYQP [V14W],0.055 ± 0.081
5,SGWQYDTQCSLAGGGIEMGDWQEVWDENTGCYYYWNTQTNEVTWELPQYLATQVQGLQHYQP [V14G],0.091 ± 0.071
6,SGWQYDTQCSLAGQGIEMGDWQEVWDENTGCYYYWNTQTNEVTWELPQYLATQVQGLQHYQP [V14Q],0.071 ± 0.084
7,SGWQYDTQCSLAGLGIEMGDWQEVWDENTGCYYYWNTQTNEVTWELPQYLATQVQGLQHYQP [V14L],-0.071 ± 0.053
8,SGWQYDTQCSLAGMGIEMGDWQEVWDENTGCYYYWNTQTNEVTWELPQYLATQVQGLQHYQP [V14M],-0.028 ± 0.082
9,SGWQYDTQCSLAGHGIEMGDWQEVWDENTGCYYYWNTQTNEVTWELPQYLATQVQGLQHYQP [V14H],-0.09 ± 0.18
10,SGWQYDTQCSLAGRGIEMGDWQEVWDENTGCYYYWNTQTNEVTWELPQYLATQVQGLQHYQP [V14R],-0.01 ± 0.064
11,SGWQYDTQCSLAGVGIEGGDWQEVWDENTGCYYYWNTQTNEVTWELPQYLATQVQGLQHYQP [M18G],-0.545 ± 0.079
12,SGWQYDTQCSLAGVGIEWGDWQEVWDENTGCYYYWNTQTNEVTWELPQYLATQVQGLQHYQP [M18W],0.025 ± 0.084
13,SGWQYDTQCSLAGVGIETGDWQEVWDENTGCYYYWNTQTNEVTWELPQYLATQVQGLQHYQP [M18T],-0.132 ± 0.098
14,SGWQYDTQCSLAGVGIEKGDWQEVWDENTGCYYYWNTQTNEVTWELPQYLATQVQGLQHYQP [M18K],-0.618 ± 0.12
15,SGWQYDTQCSLAGVGIELGDWQEVWDENTGCYYYWNTQTNEVTWELPQYLATQVQGLQHYQP [M18L],-0.313 ± 0.065
16,SGWQYDTQCSLAGVGIENGDWQEVWDENTGCYYYWNTQTNEVTWELPQYLATQVQGLQHYQP [M18N],-0.869 ± 0.22
17,SGWQYDTQCSLAGVGIEFGDWQEVWDENTGCYYYWNTQTNEVTWELPQYLATQVQGLQHYQP [M18F],-0.278 ± 0.12
18,SGWQYDTQCSLAGVGIEQGDWQEVWDENTGCYYYWNTQTNEVTWELPQYLATQVQGLQHYQP [M18Q],-0.69 ± 0.13
19,SGWQYDTQCSLAGVGIEEGDWQEVWDENTGCYYYWNTQTNEVTWELPQYLATQVQGLQHYQP [M18E],-0.534 ± 0.13
20,SGWQYDTQCSLAGVGIEHGDWQEVWDENTGCYYYWNTQTNEVTWELPQYLATQVQGLQHYQP [M18H],-0.432 ± 0.16
21,SGWQYDTQCSLAGVGIECGDWQEVWDENTGCYYYWNTQTNEVTWELPQYLATQVQGLQHYQP [M18C],-0.549 ± 0.18
